Experimental data from article PMC7337065.
Values joined by “and” are separate entries in the source; they are usually repeats but may differ in a detail not shown here. Equal values may be shown once.

Experiments:
[1] = target: Recombinant human transferrin (human) (UniProt P02787); assay: SEC-MALS; Superdex 200 Increase 10/30 GL, 4 °C, mobile phase 38 mM NaH2PO4, 12 mM Na2HPO4, 150 mM NaCl, 200 ppm NaN3, pH 7.4; samples from all tested formulation conditions
P02787 = assay: SAXS; concentration series at pH 4.0-8.0 and with NaCl or arginine at pH 5.0/6.5; estimated MW from scattering; volume fractions from OLIGOMER with monomer crystal structures and a SASREFMX dimer model; settings: other: SAXS

Sequence of Recombinant human transferrin (P02787 20-698): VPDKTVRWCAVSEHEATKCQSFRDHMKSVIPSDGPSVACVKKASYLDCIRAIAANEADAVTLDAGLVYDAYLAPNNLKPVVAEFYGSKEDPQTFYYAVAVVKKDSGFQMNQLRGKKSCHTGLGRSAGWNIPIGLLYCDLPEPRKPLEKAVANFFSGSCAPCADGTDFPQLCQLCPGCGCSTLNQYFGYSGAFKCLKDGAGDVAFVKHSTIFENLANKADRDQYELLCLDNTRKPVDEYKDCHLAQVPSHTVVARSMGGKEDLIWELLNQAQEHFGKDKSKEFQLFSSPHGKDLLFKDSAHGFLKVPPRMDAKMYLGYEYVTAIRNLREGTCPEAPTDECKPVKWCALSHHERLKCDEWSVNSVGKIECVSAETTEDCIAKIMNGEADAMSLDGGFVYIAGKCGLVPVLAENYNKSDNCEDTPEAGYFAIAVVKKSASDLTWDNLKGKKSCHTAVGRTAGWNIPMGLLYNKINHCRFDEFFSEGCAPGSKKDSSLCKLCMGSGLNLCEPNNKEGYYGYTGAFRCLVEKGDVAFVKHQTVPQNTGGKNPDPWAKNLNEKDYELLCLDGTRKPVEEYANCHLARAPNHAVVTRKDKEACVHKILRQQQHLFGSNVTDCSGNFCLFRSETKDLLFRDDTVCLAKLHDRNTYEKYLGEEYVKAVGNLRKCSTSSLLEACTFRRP

percent dimer [1] [%] | percent trimer [1] [%] | stoichiometry N [1] | Substance | volume fraction of dimer + aggregates (NaCl) (P02787) | volume fraction of dimer + aggregates (acetate) (P02787) | volume fraction of dimer + aggregates (arginine) (P02787) | volume fraction of dimer + aggregates (histidine) (P02787)
12 | 2 | 2 and 3 | Recombinant human transferrin (from UniProt P02787 20-698) (natural protein) |  |  |  | 
 |  |  | Recombinant human transferrin | 0.5 | 0.2 | 0.4 | 0.2
